This note sets out measurements from the supplement of paper PMC9170038.

Data set [1] concerns MS2 coat protein. In words: apparent KD of MS2 coat protein, switch OFF state (with FMN for OFF switches, without FMN for ON switches); designed switch direction (-1 OFF switch, 1 ON switch): -1; higher = weaker reporter binding. Conditions: FMN input: 0 or 200 uM; Eterna round: R93 (includes R88 designs). The method, boiled down: (§1)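 On-chip transcription from Illumina sequencing clusters produced the designed RNA switches. These were titrated with SNAP-549-labelled MS2 coat protein (twofold steps, 0.7 or 1.5 nM to 3 µM) in 100 mM Tris-HCl pH 7.5, 80 mM KCl, 4 mM MgCl2, with or without constant ligand. The apparent KD given is the per-design median of normalised cluster binding-curve fits.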

Data set [2] has as its system MS2 coat protein. Kind of data set: apparent KD of MS2 coat protein, switch ON state; designed switch direction (-1 OFF switch, 1 ON switch): -1; higher = weaker reporter binding. Conditions: FMN input: 0 or 200 uM; Eterna round: R93 (includes R88 designs). In short, it runs like this:
as §1

Turning to “AAGAAGUGAGGAUAUCGAAGACUGUCGAAAAGACAGUCGAACGAGAAGGCACAUGAGGAUCACCCAUGUGAGAA [Marsurpial 65% 1]”, the “apparent KD of MS2 coat protein” value in data set [1] was found to be 55.6 nM; in data set [2] it was 31 nM.

On to “AAAAAACAUGAGGAUCACCCAUGUCAGGAUAUCCUAAAGAAACUCGUAAAAAGAAAUAGGAGAAGGGACAAAAA [PK4]”, for which the “apparent KD of MS2 coat protein” value in data set [1] was 46.7 nM; in data set [2], 53.7 nM.

Regarding “AAAAAACAUGAGGAUCACCCAUGUAAGGAUAUGCUAAAAAACACGGAAAAACGUGAUAGCAGAAGGUACAAAAA [66%, Wbt, 31]”, the figures for the “apparent KD of MS2 coat protein” value in data set [1] and in data set [2] were 33.4 nM and 22.6 nM, respectively.

As for “ACUAUACGAGGAUAUGCUGUCAACACUAAGGAAUUCGUAUGACAUGAGGAUCACCCAUGUAGAAGGCGUAUACU [JR_Exc002_Sub510]”, the entries for the “apparent KD of MS2 coat protein” value in data set [1] and in data set [2] were 27.7 nM and 23.3 nM, respectively.

With “AAAGGACGAGGAUAUACAUGAGGAUCACCCAUGUAAAGGGCAUAAUAAAAGAACUUAUGUAGAAGGCGUCCAAA [69%, Moding Meechl, 6]”, the “apparent KD of MS2 coat protein” value in data set [1] was determined as 15.6 nM; in data set [2], 79.1 nM.

“CUCAAGUUAGGAUAUAGAAGAAAAGAAGAGAAAGAAAAGAACUAGAAGGAACAUGAGGAUCACCCAUGUAAGAA [EteRNA is fun!]”: the results for the “apparent KD of MS2 coat protein” value in data set [1] and in data set [2] were 20.5 nM and 31.2 nM, respectively.

Regarding “AAAAACGGAGGAUAUGCAAAAAAAAAAAAAAAAAAAAAAAAACAUGAGGAUCACCCAUGUAGAAGGCCGAAAAA [Diamond]”, the “apparent KD of MS2 coat protein” value in data set [1] was 36.9 nM; in data set [2], 25.6 nM.

For the sequence “CAGUACUGAGGAUAUACAUGAGGAUCACCCAUGUAUCCAAGCUAGGAAACUAGCACAUGUAGAAGGCAGUACUG [Ex3: 822]”, the “apparent KD of MS2 coat protein” value in data set [1] stood at 34.5 nM; in data set [2], 294 nM.

Consider “CUCAAGUAAGGAUAUGCAAGAAAAGAAGAGAAAGAAAAGAAGCAGAAGGUACAUGAGGAUCACCCAUGUAAGAA [EteRNA is fun!]”, for which the “apparent KD of MS2 coat protein” value was 35.8 nM in data set [1] and 37.3 nM in data set [2].

As to “AAAAACGUAGGAUAUACAUGAAAAAAAAAAAAAAAAAAAAGACAUGAGGAUCACCCAUGUAGAAGGGCGAAAAA [water's exclusion 2]”, the “apparent KD of MS2 coat protein” value worked out at 76.8 nM in data set [1] and 91.9 nM in data set [2].

In the case of “AAGAAGUCAGGAUAUGCCAGAGAUCACGAAAGUGACUAAGGGCAGAAGGGACAUGAGGAUCACCCAUGUAAAGA [Opal 5]”, the “apparent KD of MS2 coat protein” value in data set [1] was 62.1 nM; in data set [2], 63.4 nM.

Consider “AAAAAUGGAGGAUAUACAUGAGGAUCACCCAUGUGUAACAAAACAAAACACAAAAAAAGUAGAAGGCCAAAAAA [Gilly Gone Silly 5 - Jieux - Exclusion 3]”, for which the “apparent KD of MS2 coat protein” value in data set [1] was 20.4 nM; in data set [2] it was 19.2 nM.

As for “AACAGUACAGGAUAUACAUGAGGAUCACCCAUGUAAAAUAAAUAAAAAUAAAAAGGGAGUAGAAGGGUACUGGA [Moding Maslow revisited (73) 19]”, the “apparent KD of MS2 coat protein” value in data set [1] is 50.3 nM; in data set [2], 37.2 nM.

In the case of “AAAAAGUAAGGAUAUGCGAAUAAAUAAGAAGAAGAAAGAAAGCAGAAGGUACAUGAGGAUCACCCAUGUAAAAA [Ex 4 Tesla 1]”, the results for the “apparent KD of MS2 coat protein” value in data set [1] and in data set [2] were 22.5 nM and 36.3 nM, respectively.

For the sequence “AGAAAACAUGAGGAUCACCCAUGUCAGGAUAUGUAAAAGAAAAGAAAAGAAAGAAGAAGCAGAAGGGACAAGAA [Sekhemkhet]”, the “apparent KD of MS2 coat protein” value in data set [1] was 36.8 nM; in data set [2], 28.8 nM.

Regarding “AAAAGCACAGGAUAUACGGGAUUAUGACGAAAGUCAUAAAAACAUGAGGAUCACCCAUGUAGAAGGGUGCAAAA [Mod of Meechl's... 64% 2]”, the “apparent KD of MS2 coat protein” value is 248 nM in data set [1] and 191 nM in data set [2].

With “AACAGGACAGGAUAUACAUGAGGAUCACCCAUGUGAAGAUUAAGAAGAAAACCACAAAGUAGAAGGGUCCUGGA [Ruby 94]”, the “apparent KD of MS2 coat protein” value came out at 79.2 nM in data set [1] and 35.1 nM in data set [2].

In the case of “AAAAGACAUGAGGAUCACCCAUGUGAGGAUAUGCGAAAAAAAAAAAUAAAAAAAAAAAGUAGAAGGCACACCAA [Mat - Exclusion 1 - Eli mod - D56]”, the “apparent KD of MS2 coat protein” value in data set [1] is 248 nM; in data set [2], 177 nM.

For “AAGAAUCGAGGAUAUACAUGAGGAUCACCCAUGUAAAAGAAAGAAAGGGAAAAGAAAAGUAGAAGGCGAAAGAA [Usermaatre-setepenre Shoshenq III]”, the results for the “apparent KD of MS2 coat protein” value in data set [1] and in data set [2] were 23.6 nM and 23.4 nM, respectively.

As to “AAAAUACAUGAGGAUCACCCAUGUGAGGAUAUGCUAUGGAAAAUAAAAAUAAAACAUAGCAGAAGGCACAAAAA [Denovo 13]”, the “apparent KD of MS2 coat protein” value came to 56.7 nM in data set [1] and 37 nM in data set [2].

Take “AGGAUGUCAGGAUAUGUGUAAAGAAUAAAACAAAUAACAACACAGAAGGGACAUGAGGAUCACCCAUGUUAAGA [May 44]”: the “apparent KD of MS2 coat protein” value in data set [1] is 55.7 nM; in data set [2] it was 36.8 nM.

“AGUUGGCGAGGAUAUACAUGAGGAUCACCCAUGUGAGAGAAAAAAAGAAGAAAAAAAAGUAGAAGGCGCUGACA [Mat - Exclusion 3 - Lego mod - D43]”: the entries for the “apparent KD of MS2 coat protein” value in data set [1] and in data set [2] were 103 nM and 44.2 nM, respectively.

As for “CUCUAGUGAGGAUAUACAAGAAAAGAAAAGAAAGAAAAGAAGUAGAAGGCACAUGAGGAUCACCCAUGUAAGAA [EteRNA is fun!]”, the “apparent KD of MS2 coat protein” value in data set [1] was found to be 30.2 nM; in data set [2] it was 24.8 nM.

With “UAAAAACAUGAGGAUCACCCAUGUGAGGAUAUACGAAAGUAGAAGGCACUAAAAUAAAAUAGAAGGAUAAAAUA [Meechl Ex1 R2 m1]”, the entries for the “apparent KD of MS2 coat protein” value in data set [1] and in data set [2] were 37.5 nM and 23.2 nM, respectively.

With “UUUAUGUGAGGAUAUCAGUAGUAAAAAAAUAAAAUUACUACUGAGAAGGCACAUGAGGAUCACCCAUGUGUCUC [EX4 350: Super Stable 50]”, the “apparent KD of MS2 coat protein” value in data set [1] is 15 nM; in data set [2], 17.5 nM.

In the case of “AAAAAACAUGAGGAUCACCCAUGUCAGGAUAUCCGGUUAAAAAAAAAAAAAAGGCGUUGGAGAAGGGACAUUCC [Chica Displaced 9 - Jieux - Exclusion 1]”, the “apparent KD of MS2 coat protein” value turned out to be 33.4 nM in data set [1] and 25.7 nM in data set [2].

On to “AGCUAGUGAGGAUAUACGAACACGUAACAGGACUGUAAGGGACAUGAGGAUCACCCAUGUAGAAGGCACUAGCA [Diamond 61]”, for which the “apparent KD of MS2 coat protein” value in data set [1] was 77 nM; in data set [2] it was 33.9 nM.

As to “AAGACUACAGGAUAUACAUGAGGAUCACCCAUGUAACUGACAAGUAGAGUACGGAGAAGUAGAAGGGUAGUCAA [Ruby 34]”, the entries for the “apparent KD of MS2 coat protein” value in data set [1] and in data set [2] were 17.6 nM and 14.9 nM, respectively.

Regarding “AAGAAGAUAGGAUAUACAAGAAAGAAAGAAAAGAAAAGAAAACAUGAGGAUCACCCAUGUAGAAGGAUCUAGAA [EteRNA is fun!]”, the “apparent KD of MS2 coat protein” value came out at 15.9 nM in data set [1] and 30.8 nM in data set [2].

For the sequence “AGAAACGAAGGAUAUACAUGAGGAUCACCCAUGUAAAGAAAGAGGAGAGCCACAAGAAGUAGAAGGUCGAAGAA [JR_Exc003_Sub007]”, the entries for the “apparent KD of MS2 coat protein” value in data set [1] and in data set [2] were 50.7 nM and 27.4 nM, respectively.

“AAGACUAGAGGAUAUACAUGAGGAUCACCCAUGUAACUGUCAGGAAACUGACGGAGAAGUAGAAGGCUAGUCAA [Mat - Exclusion 3 - JL mod - D85]”: the “apparent KD of MS2 coat protein” value worked out at 20.2 nM in data set [1] and 16.1 nM in data set [2].

On to “AAGAAGAGAGGAUAUACAUGAGGAUCACCCAUGUAAAAGAAAGAAGGGAAAGAGAAAAGUAGAAGGCUCAAGAA [Usermaatre-setpenamun Rudamun]”, for which the “apparent KD of MS2 coat protein” value came to 31 nM in data set [1] and 25.6 nM in data set [2].

“AAGAAAGCAGGAUAUACAUGAGGAUCACCCAUGUAAAAGAAAGAGGGAAAAGAGAAAAGUAGAAGGGCUAAGAA [Cleopatra IV]”: the “apparent KD of MS2 coat protein” value in data set [1] turned out to be 33.8 nM; in data set [2], 37.3 nM.

Regarding “AGUAGUACAGGAUAUACAUGAGGAUCACCCAUGUGAAAAGAAAGUGGCGUACCACAAAGUAGAAGGGUACUACA [Mat - Exclusion 3 - JL mod - D34]”, the “apparent KD of MS2 coat protein” value is 152 nM in data set [1] and 33.7 nM in data set [2].

As to “AAAAAGUCAGGAUAUGCGAAGGCGUCUGAUAGACGAGGCUAGCAGAAGGGACAUGAGGAUCACCCAUGUGGAAG [Mat - Exclusion 4 - Eli mod - D89]”, the “apparent KD of MS2 coat protein” value in data set [1] was found to be 121 nM; in data set [2], 81.3 nM.

Take “AAAAAACAUGAGGAUCACCCAUGUAAGGAUAUCGUGCAGAAAAAAAAAAAAAACUGCACGAGAAGGUACUUGGA [Brourd - Exclusion 1 - Sub 3]”: the figures for the “apparent KD of MS2 coat protein” value in data set [1] and in data set [2] were 87.9 nM and 43.1 nM, respectively.

On to “AAAACGGUAGGAUAUACGAUUGGGAACUAGACCGAGAAACCACAUGAGGAUCACCCAUGUAGAAGGGCCAAAAA [Ex2 Malc#13]”, for which the “apparent KD of MS2 coat protein” value stood at 36.2 nM in data set [1] and 31.1 nM in data set [2].

As to “AGCUAACAUGAGGAUCACCCAUGUCAGGAUAUGCAAAGAUCGAUCGAACGAUCGAUAAGCAGAAGGGACACUGA [Amethyst 94]”, the “apparent KD of MS2 coat protein” value in data set [1] worked out at 47.5 nM; in data set [2], 27.1 nM.

On to “AGUGAGUGAGGAUAUCACUGAAGAAUAAAAGAAAUAACGAGUGAGAAGGCACAUGAGGAUCACCCAUGUACACA [May 63]”, for which the “apparent KD of MS2 coat protein” value in data set [1] was 18.3 nM; in data set [2] it was 24.1 nM.

For the sequence “GUGUACAGAGGAUAUACUAAAGCUAGGAAACUAGCAAGAUCACAUGAGGAUCACCCAUGUAGAAGGCUGUACAC [Ex2: 740]”, the “apparent KD of MS2 coat protein” value is 500 nM in data set [1] and 58.1 nM in data set [2].
